Patent publication US20240383994A1 (CHIA TAI TIANQING PHARMACEUTICAL GROUP, published 2024)

T1: CynoCD40-His protein (Acro, Cat. No.: CD0-C52H6) (cynomolgus monkey, UniProt P25942 21-193 (human entry))
T1 construct: Bought protein; also called cynomolgus monkey CD40 antigen; not shown: His tag
T1 chain: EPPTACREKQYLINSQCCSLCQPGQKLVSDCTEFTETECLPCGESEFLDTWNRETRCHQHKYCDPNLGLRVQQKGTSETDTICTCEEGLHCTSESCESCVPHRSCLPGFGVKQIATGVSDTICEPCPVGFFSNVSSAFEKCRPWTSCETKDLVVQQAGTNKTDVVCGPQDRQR


What was measured:
[1] = molecular target: T2, human CD40 (hCD40), full length, on cells (human, UniProt P25942 21-277); assay: cell-based or functional assay
[2] = molecular target: T2, human CD40 (hCD40), full length, on …; assay: flow cytometry (MFI) on 293T-hCD40-NFκB cells, PE anti-human IgG detection
[3] = molecular target: T3, hCD40-mFc (human); assay: flow cytometry, blocking of hCD40-mFc (2 µg/mL) binding to CHO-K1-hCD40L cells
T3 construct: Prepared in-house in CHO cells; also called human CD40 recombinant protein containing a mouse antibody heavy chain Fc; Human CD40-mFc
Description: A CHO-K1-hCD40L cell suspension and a CHO-K1-CynoCD40L cell suspension at a cell concentration of 3×10⁵ cells/mL were separately added into a 96-well U-bottom plate at 100 μL/well. An hCD40-mFc protein at a final concentration of 2 μg/mL (prepared in-house, SEQ ID NO: 64) or a cynoCD40-mFc protein at a final concentration of 2 μg/mL (prepared in-house, SEQ ID NO: 65) was added correspondingly, before serially 2-fold diluted anti-CD40 antibodies in a final concentration range of 312.5 ng/ml-40000 ng/ml were added. The mixture was mixed well, and then incubated at 4° C. for 1 h. The cells were washed with PBS containing 2% of FBS, and then a PE-conjugated goat anti-mouse IgG (H+L) antibody (Abcam, Cat. No.: ab97041) diluted at a volume ratio of 1:500 was added, and the mixture was incubated at 4° C. for 0.5 h. The cells were washed with PBS containing 2% of […], and then resuspended in PBS containing 2% of FBS. The fluorescence signals were detected on a flow cytometer (Sartorius IQue3). The activity of anti-CD40 antibodies to block the binding of CHO-K1-hCD40L cells to an hCD40-mFc protein and CHO-K1-cynoCD40L cells to a cynoCD40-mFc protein was analyzed by the mean fluorescence intensity (MFI) of staining, and the IC₅₀ value was calculated by GraphPad Prism software.

[4] = molecular target: T2, human CD40 (hCD40), full length, on …; assay: cell-based or functional assay; remark: listed apart in the source
[5] = molecular target: T4, hCD40-His protein (Acro, Cat. No.: CD0-H5228) (human, UniProt P25942 21-193); assay: BLI (Fortebio Octet RED96e), antibody captured on AHC sensor, antigen 1.56-100 nM, 1:1 model
T4 construct: Bought protein; also called human CD40 antigen; not shown: His tag
Description: (§1) The affinity of humanized anti-CD40 antibodies to an hCD40-His protein (Acro, Cat. No.: CD0-H5228) and a CynoCD40-His protein (Acro, Cat. No.: CD0-C52H6) was detected by a ForteBio molecular interaction system. Firstly, an AHC biosensor (Fortebio, Cat. No.: 18-5060) was activated, and then immersed in an anti-CD40 antibody solution at a final concentration of 5 μg/mL to capture the antibodies. Serially 2-fold diluted hCD40-His protein and CynoCD40-His protein in a final concentration range of 1.56 nM-100 nM were then […] the AHC biosensor. The response signals were detected in real time on a Fortebio molecular interaction system (Fortebio Octet RED96e) to give association and dissociation curves. After the completion of dissociation in each cycle, the AHC biosensor was regenerated for the next capture; the procedure was repeated until the affinity of the different antibodies for CD40 was determined. The resulting data were analyzed by Fortebio Data Analysis 11.0 software using a 1:1 (Langmuir) binding model to determine the Kₐ (Kₒₙ) and Kd (Kdis) values, and the dissociation constant KD was calculated by KD=Kd/Kₐ. See www.fortebio.com for more detailed detection procedures and related information.

[6] = molecular target: T1, CynoCD40-His protein (Acro, Cat. No.: …); assay: as above
Description: as §1

Row | Binder | MFI value (CD95 on Ramos cells), Fc crosslinking with anti-human IgG Fcγ antibody, 1 µg/mL antibody [1] [MFI] | MFI value (CD95 on Ramos cells), Fc crosslinking with anti-human IgG Fcγ antibody, 10 µg/mL antibody [1] [MFI] | EC50 (read off the curve) [2] [ng/mL] | IC50 [3] [nM] | IC50 (read off the curve); NF-κB luciferase reporter (RLU), 293T-hCD40-NFκB cells co-cultured 1:1 with CHO-K1-hCD40L cells [4] [ng/mL] | Kd [5] [nM] | koff [5] [s⁻¹] | kon [5] [M⁻¹ s⁻¹] | Kd [6] [nM] | koff [6] [s⁻¹] | kon [6] [M⁻¹ s⁻¹]
1 | CP-870893 (antibody, human IgG2, kappa, V domains shown) VH: not shown VL: DIQMTQSPSSVSASVGDRVTITCRASQGIYSWLAWYQQKPGKAPNLLIYTASTLQSGVPSRFSGSGSGTDFTLTISSLQPEDFATYYCQQANIFPLTFGGGTKVEIKR | 136000 | 135000 |  |  |  |  |  |  |  |  | 
2 | hzA01-1.1 (antibody, human IgG4 S228P, kappa, V domains shown, Humanized A01; also called hzA01L1 + hzA01H1) VH: QVQLQESGPGLVKPSETLSLTCTVSGFSLPTSGVHWIRQPPGKGLEWIGVIWAGGDTNYNPSLKSRVTISKDNSKNQVFLKLSSVTAADTAVYYCLGHGHFDVWGQGTLVTVSS VL: DIQMTQSPSSLSASVGDRVTITCRSSQSLVHSSGNTYLQWYQQKPGKAPGLLIYKVSNRFSGVPSRFSGSGSGTDFTLTISSLQPEDFATYYCSQTTHVPWTFGQGTKVEIKR |  |  |  |  | ~0.3 | 0.808 | 0.00101 | 1.25e+06 | 0.576 | 0.000923 | 1.6e+06
3 | hzA01-2.1 (antibody, human IgG4 S228P, kappa, V domains shown, Humanized A01; also called hzA01L2 + hzA01H1) VH: QVQLQESGPGLVKPSETLSLTCTVSGFSLPTSGVHWIRQPPGKGLEWIGVIWAGGDTNYNPSLKSRVTISKDNSKNQVFLKLSSVTAADTAVYYCLGHGHFDVWGQGTLVTVSS VL: EIVLTQSPGTLSLSPGERATLSCRSSQSLVHSSGNTYLQWYQQKPGQAPRLLIYKVSNRFSGIPDRFSGSGSGTDFTLTISRLEPEDFAVYYCSQTTHVPWTFGQGTKVEIKR |  |  |  |  | ~0.6 | 1.76 | 0.00255 | 1.45e+06 | 1.5 | 0.00282 | 1.88e+06

Further lines, results first:

Row | MFI value (CD95 on Ramos cells), Fc crosslinking with anti-human IgG Fcγ antibody, 1 µg/mL antibody [1] [MFI] | MFI value (CD95 on Ramos cells), Fc crosslinking with anti-human IgG Fcγ antibody, 10 µg/mL antibody [1] [MFI] | EC50 (read off the curve) [2] [ng/mL] | IC50 [3] [nM] | IC50 (read off the curve); NF-κB luciferase reporter (RLU), 293T-hCD40-NFκB cells co-cultured 1:1 with CHO-K1-hCD40L cells [4] [ng/mL] | Kd [5] [nM] | koff [5] [s⁻¹] | kon [5] [M⁻¹ s⁻¹] | Kd [6] [nM] | koff [6] [s⁻¹] | kon [6] [M⁻¹ s⁻¹] | Binder
4 |  |  | ~2 | 22.8 | ~0.6 | 0.366 | 0.000601 | 1.64e+06 | 0.365 | 0.000686 | 1.88e+06 | hzA01-3.1 (antibody, human IgG4 S228P, kappa, V domains shown, Humanized A01; also called hzA01L3 + hzA01H1) VH: QVQLQESGPGLVKPSETLSLTCTVSGFSLPTSGVHWIRQPPGKGLEWIGVIWAGGDTNYNPSLKSRVTISKDNSKNQVFLKLSSVTAADTAVYYCLGHGHFDVWGQGTLVTVSS VL: DVVMTQSPLSLPVTLGQPASISCRSSQSLVHSSGNTYLQWYLQRPGQSPGLLIYKVSNRFSGVPDRFSGSGSGTDFTLKISRVEAEDVGVYYCSQTTHVPWTFGQGTKLEIKR
5 |  |  | ~2 | 19.8 | ~0.6 | 0.264 | 0.000454 | 1.72e+06 | 0.262 | 0.000532 | 2.03e+06 | hzA01-3.4 (antibody, human IgG4 S228P, kappa, V domains shown, Humanized A01; also called hzA01L3 + hzA01H4) VH: QVQLKESGPGLVKPSETLSLTCTVSGFSLPTSGVHWIRQPPGKGLEWIGVIWAGGDTNYNSALMSRVTISKDNSKSQVFLKMSSVTAADTAVYYCLGHGHFDVWGQGTLVTVSS VL: DVVMTQSPLSLPVTLGQPASISCRSSQSLVHSSGNTYLQWYLQRPGQSPGLLIYKVSNRFSGVPDRFSGSGSGTDFTLKISRVEAEDVGVYYCSQTTHVPWTFGQGTKLEIKR
